According to paper PMC9433777:

Legend:
[1] = target: HIV-1 envelope 6535 (subtype B) (HIV-1)
[2] = target: HIV-1 envelope Q842.d12 (subtype A) (HIV-1)
[3] = target: HIV-1 envelope QH0692.42 (subtype B) (HIV-1)
[4] = target: HIV-1 envelope Q461.e2 (subtype A) (HIV-1)
[5] = target: HIV-1 envelope ZM233.6 (subtype C) (HIV-1)
[6] = target: HIV-1 envelope Q23.17 (subtype A) (HIV-1)
[7] = target: HIV-1 envelope Du172.17 (subtype C) (HIV-1)
[8] = target: HIV-1 envelope CAP45.G3 (subtype C) (HIV-1)
[9] = target: HIV-1 envelope TRO.11 (subtype B) (HIV-1)
[10] = target: HIV-1 envelope Du422.01 (subtype C) (HIV-1)
[11] = target: HIV-1 envelope CAP214.15 (subtype C) (HIV-1)
[12] = target: HIV-1 envelope CAP210.E8 (subtype C) (HIV-1)
[13] = target: HIV-1 envelope Q168.a2 (subtype A) (HIV-1)
[14] = target: HIV-1 envelope ZM197.7 (subtype C) (HIV-1)
[15] = target: HIV-1 envelope Du156.12 (subtype C) (HIV-1)

Substance | IC50 of neutralisation of HIV-1 pseudovirus, TZM-bl assay [1] | IC50 of neutralisation of HIV-1 pseudovirus, TZM-bl assay [2] | IC50 of neutralisation of HIV-1 pseudovirus, TZM-bl assay [3] | IC50 of neutralisation of HIV-1 pseudovirus, TZM-bl assay [4] | IC50 of neutralisation of HIV-1 pseudovirus, TZM-bl assay [5] | IC50 of neutralisation of HIV-1 pseudovirus, TZM-bl assay [6] | IC50 of neutralisation of HIV-1 pseudovirus, TZM-bl assay [7] | IC50 of neutralisation of HIV-1 pseudovirus, TZM-bl assay [8] | IC50 of neutralisation of HIV-1 pseudovirus, TZM-bl assay [9] | IC50 of neutralisation of HIV-1 pseudovirus, TZM-bl assay [10] | IC50 of neutralisation of HIV-1 pseudovirus, TZM-bl assay [11] | IC50 of neutralisation of HIV-1 pseudovirus, TZM-bl assay [12] | IC50 of neutralisation of HIV-1 pseudovirus, TZM-bl assay [13] | IC50 of neutralisation of HIV-1 pseudovirus, TZM-bl assay [14] | IC50 of neutralisation of HIV-1 pseudovirus, TZM-bl assay [15]
CAP256-VRC26.25 produced in HEK293 (antibody) | > 50 µg/mL | > 50 µg/mL | > 50 µg/mL | 0.67 µg/mL | 0.0044 µg/mL | 0.0014 µg/mL | > 50 µg/mL | 0.0013 µg/mL | > 50 µg/mL | 0.11 µg/mL | 3.12 µg/mL | 0.0012 µg/mL | 1.73 µg/mL | 0.11 µg/mL | 0.15 µg/mL
CAP256-VRC26.25 produced in N. benthamiana (ΔXTFT) with Cas9/sgRNAs coexpression (antibody) | > 50 µg/mL | > 50 µg/mL | > 50 µg/mL | 1.61 µg/mL | 0.005 µg/mL | 0.0016 µg/mL | > 50 µg/mL | 0.0013 µg/mL | > 50 µg/mL | 0.2 µg/mL | 2.77 µg/mL | 0.0014 µg/mL | 3.05 µg/mL | 0.098 µg/mL | 0.041 µg/mL
CAP256-VRC26.25 produced in N. benthamiana (ΔXTFT) without Cas9/sgRNAs coexpression (antibody) | > 50 µg/mL | > 50 µg/mL | > 50 µg/mL | 1.73 µg/mL | 0.0042 µg/mL | 0.0016 µg/mL | > 50 µg/mL | 0.0014 µg/mL | > 50 µg/mL | 0.1 µg/mL | 4.31 µg/mL | 0.0015 µg/mL | 2.94 µg/mL | 0.056 µg/mL | 0.034 µg/mL
